# Where a chain is given by its changes, count along the chain named.
# B1: PGT121.56 (antibody, human IgG1, lambda)
# heavy: QMQLQESGPGLVKPSETLSLTCSVSGASISDSYWSWIRRSPGKGLEWIGYVHKSGDTNYSPSLKSRVNLSLDTSKNQVSLSLVAATAADSGKYYCARTLHGRRIYGIVAFNEWFTYFYMDVWGNGTQVTVSSASTKGPSVFPLAPSSKSTSGGTAALGCLVKDYFPEPVTVSWNSGALTSGVHTFPAVLQSSGLYSLSSVVTVPSSSLGTQTYICNVNHKPSNTKVDKKVEPKSCDKTHTCPPCPAPELLAGPDVFLFPPKPKDTLMISRTPEVTCVVVDVSHEDPEVKFNWYVDGVEVHNAKTKPREEQYNSTYRVVSVLTVLHQDWLNGKEYKCKVSNKALPLPEEKTISKAKGQPREPQVYTLPPSREEMTKNQVSLTCLVKGFYPSDIAVEWESNGQPENNYKTTPPVLDSDGSFFLYSKLTVDKSRWQQGNVFSCSVLHEALHSHYTQKSLSLSPGK
# light: not shown
# B2: PGT121.60 hIgG1/hLambda (antibody)
# heavy: B1 heavy with S60N, N68H, V83T, A84G, A85V, N124T
# light: not shown
# Key:
# Assay in all cases: cell-based or functional assay
# [1] = target: Env of 92 subtype B viruses
# [2] = target: 22 primary HIV-1 isolates or clones (mean over all viruses of Table 13)
# [3] = target: HIV-1 Env (gp120) of 4 primary HIV-1 isolates or molecular clones on infected CEM-NKr-CCR5-LucR CD4 T cells
Binder,Coverage (%) [1] [%],Median IC95 (neutralization) [1] [µg/mL],"EC50 (µg/mL), killing of HIV-infected cells (Mean; mean over all viruses) [2] [µg/mL]","Emax, killing of HIV-infected cells (Mean; mean over all viruses) [2] [%]","EC50 of killing infected cells, median [3] [µg/mL]","proportion of infected cells killed (Emax), median [3] [%]"
B1,62,0.265,,,,
B2,59.8,0.177,1.03,56,> 100,18
